From the supplement of paper PMC12667976
± gives the standard error.

B1: library; numbered along this chain (parent)
chain: MATDAALRRLLRLHRTEIAVAVDSAFPLLHALADHDVVPEDKFQETLHLKEKEGCPQAFHALLSWLLTQDSTAILDFWRVLFKDYNLERYGRLQPILDSFPKDVDLSQPRKGRKPPAVPKALVPPPRLPTKRKASEEARAAAPAALTPRGTASPGSQLKAKPPKKPESSAEQQRLPLGNGIQTMSASVQRAVAMSSGDVPGARGAVEGILIQQVFESGGSKKCIQVGGEFYTPSKFEDSGSGKNKARSSSGPKPLVRAKGAQGAAPGGGEARLGQQGSVPAPLALPSDPQLHQKNEDECAVCRDGGELICCDGCPRAFHLACLSPPLREIPSGTWRCSSCLQATVQEVQPRAEEPRPQEPPVETPLPPGLRSAGEEVRGPPGEPLAGMDTTLVYKHLPAPPSAAPLPGLDSSALHPLLCVGPEGQQNLAPGARCGVCGDGTDVLRCTHCAAAFHWRCHFPAGTSRPGTGLRCRSCSGDVTPAPVEGVLAPSPARLAPGPAKDDTASHEPALHRDDLESLLSEHTFDGILQWAIQSMARPAAPFPS

Variants of: B1
Assay: AIRE transcriptional activation functional score (insulin promoter-GFP; nonsense median 0, synonymous median 1) (normalised score); higher = higher AIRE activity (more reporter activation)
Conditions: with insulin promoter-GFP reporter in HEK293
Description: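 Deep mutational scan of full-length human AIRE (codon-optimized cDNA, DT-POPCode NNN libraries over three regions) integrated at a Bxb1 landing pad in HEK293 cells carrying an insulin core promoter-GFP reporter at a Flp-In site. Cells were sorted for the top 10% GFP about 14 days after transfection. Variant frequency log-ratios (select vs non-select, TileSeq) were rescaled so that the nonsense median is 0 and the synonymous median is 1, then averaged over biological replicates.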

AIRE transcriptional activation functional score: each site, then its substitutions
L285: V 0.989 ± 0.16; R 1.02 ± 0.33; H 0.689 ± 0.094; Q 1.22 ± 0.074; T 0.845 ± 0.47; N 0.918 ± 0.047; I 1.02 ± 0.082; P 1.17 ± 0.45; D 1.56 ± 0.21; S 0.921 ± 0.25; C 0.894 ± 0.2; Y 0.979 ± 0.08; K 0.713 ± 0.23; A 1.37 ± 0.61; F 0.835 ± 0.33; G 0.429 ± 0.3
A271: K 1.1 ± 0.14; V 1.09 ± 0.14; E 1.1 ± 0.12; S 1.09 ± 0.17; N 1.11 ± 0.13; L 1.24 ± 0.29; I 1.1 ± 0.18; Y 0.83 ± 0.071; R 0.714 ± 0.37; D 1.22 ± 0.21; T 0.847 ± 0.23; W 1.6 ± 0.061; G 0.722 ± 0.38; F 0.885 ± 0.31; C 1 ± 0.56; Q 0.693 ± 0.16; H 1.66 ± 0.047; P 1.02 ± 0.28; M 1.38 ± 0.051
R272: W 0.893 ± 0.044; V 0.896 ± 0.33; F 1.09 ± 0.24; L 1.01 ± 0.29; P 0.879 ± 0.33; M 1.31 ± 0.061; Y 0.677 ± 0.23; T 0.941 ± 0.33; E 1.08 ± 0.17; C 1.3 ± 0.18; N 1.37 ± 0.067; K 0.494 ± 0.23; Q 0.947 ± 0.41; D 1.21 ± 0.23; H 0.444 ± 0.15; S 1.02 ± 0.3; I 1.08 ± 0.23; G 0.842 ± 0.29; A 0.71 ± 0.27
L273: W 1.37 ± 0.051; D 0.505 ± 0.15; I 1.07 ± 0.28; T 0.77 ± 0.41; H 0.264 ± 0.23; A 0.967 ± 0.28; P 1.11 ± 0.34; C 0.741 ± 0.15; S 0.975 ± 0.53; Q 1.72 ± 0.43; Y 1.28 ± 0.28; N 0.862 ± 0.052; R 0.646 ± 0.2; F 0.977 ± 0.078; K 0.434 ± 0.14; V 1.02 ± 0.25; G 0.95 ± 0.18; M 1.19 ± 0.068; E 0.817 ± 0.051
A281: F 1.63 ± 0.22; G 1.5 ± 0.098; T 0.867 ± 0.14; D 0.674 ± 0.04; C 0.996 ± 0.17; Y 1.32 ± 0.046; S 0.99 ± 0.19; L 1.31 ± 0.25; Q 1.02 ± 0.46; P 0.84 ± 0.2; I 0.957 ± 0.46; H 1.11 ± 0.085; M 0.425 ± 0.077; R 1.15 ± 0.39; V 0.872 ± 0.29; K 1.67 ± 0.12; N 0.445 ± 0.21; W 1.53 ± 0.049; E -0.175 ± 0.053
P282: V 1.38 ± 0.26; L 1.31 ± 0.25; E 0.555 ± 0.085; D 1.05 ± 0.057; W 1.1 ± 0.065; A 0.929 ± 0.3; F 0.638 ± 0.14; H 0.91 ± 0.075; S 0.614 ± 0.22; R 0.839 ± 0.35; Y 1.17 ± 0.27; T 1.27 ± 0.22; G 1.03 ± 0.24; M 1.1 ± 0.029; K 1.2 ± 0.063; C 2.16 ± 0.071; N -0.335 ± 0.22; I 1.43 ± 0.19; Q 0.976 ± 0.13
A284: P 0.905 ± 0.28; E 0.63 ± 0.16; K 0.964 ± 0.18; Q 1.39 ± 0.3; G 1.03 ± 0.21; V 1.06 ± 0.16; C 0.943 ± 0.11; M 0.962 ± 0.03; W 1.16 ± 0.027; F 1.2 ± 0.18; D 1.06 ± 0.14; H 0.932 ± 0.3; Y 1.32 ± 0.18; T 0.876 ± 0.2; I 1.23 ± 0.24; S 1.1 ± 0.28; R 1.12 ± 0.15; N 0.828 ± 0.039; L 1.02 ± 0.29
S287: E 0.811 ± 0.19; F 0.994 ± 0.031; C 1.07 ± 0.13; A 1.17 ± 0.32; D 0.579 ± 0.25; G 1.22 ± 0.13
P280: N 1.37 ± 0.042; R 1.01 ± 0.22; L 1.28 ± 0.27; K 0.978 ± 0.09; F 1.58 ± 0.24; H 1.04 ± 0.14; D 0.642 ± 0.23; C 0.574 ± 0.13; Y 1.42 ± 0.076; S 1.1 ± 0.41; M 1.23 ± 0.074; W -0.397 ± 0.28; G 1.17 ± 0.45; T 1.04 ± 0.29; I 0.993 ± 0.099; V 1.2 ± 0.15; A 0.981 ± 0.21; Q 1.14 ± 0.094; E 1.13 ± 0.23
V279: T 0.815 ± 0.12; Y 1.26 ± 0.048; S 1.24 ± 0.4; I 0.721 ± 0.43; R 1.04 ± 0.18; F 1.69 ± 0.43; N 0.603 ± 0.33; A 1.45 ± 0.19; M 1.34 ± 0.095; D -0.0439 ± 0.22; E 1.08 ± 0.12; P 1.06 ± 0.19; G 1.08 ± 0.14; Q -0.249 ± 0.29; L 1 ± 0.24; C 1.36 ± 0.22; K 0.637 ± 0.24; W 1.4 ± 0.13; H 1.06 ± 0.055
G269: S 1.2 ± 0.23; L 1.36 ± 0.38; W 1.81 ± 0.065; P 1.44 ± 0.093; N 0.306 ± 0.089; T 1.51 ± 0.13; Q 0.849 ± 0.18; R 1.13 ± 0.27; M 0.571 ± 0.041; Y 0.676 ± 0.18; V 1.05 ± 0.17
G274: V 1.05 ± 0.16; N 1 ± 0.34; D 1.14 ± 0.15; P 0.734 ± 0.42; W 1.46 ± 0.045; R 0.983 ± 0.14; F 0.89 ± 0.068; H 1.4 ± 0.14; S 1.09 ± 0.32; Y 1.07 ± 0.028; I 0.929 ± 0.32; K 1.24 ± 0.055; L 1 ± 0.27; E 0.611 ± 0.097; C 0.942 ± 0.21; Q 0.131 ± 0.15; T 0.86 ± 0.15; A 0.889 ± 0.18
Q276: S 0.925 ± 0.17; K 0.954 ± 0.22; A 1.12 ± 0.1; P 1.05 ± 0.092; F 1.05 ± 0.044; E 0.831 ± 0.28; L 0.779 ± 0.25; M 1 ± 0.08; Y 1.26 ± 0.065; H 1.26 ± 0.15; G 1.39 ± 0.29; T 1.14 ± 0.16; W 0.869 ± 0.12; V 0.873 ± 0.11; R 0.822 ± 0.37; C 1.26 ± 0.039; I 1.83 ± 0.08; D 1.11 ± 0.42; N 1.52 ± 0.29
E270: D 1.37 ± 0.18; K 0.735 ± 0.032; S 0.795 ± 0.13; W 1.36 ± 0.024; R 0.723 ± 0.14; L 1.41 ± 0.26; H 1.56 ± 0.082; T 0.69 ± 0.38; A 0.795 ± 0.25; M 1.2 ± 0.07; P 1.64 ± 0.2; C 1.08 ± 0.53; N 1.01 ± 0.45; V 1.36 ± 0.34; F 0.977 ± 0.13; Q 1.15 ± 0.33; I 0.55 ± 0.37; G 1.11 ± 0.2; Y 1.38 ± 0.056
G277: Q 0.825 ± 0.064; M 1.01 ± 0.086; T 0.758 ± 0.045; L 0.959 ± 0.17; H 0.919 ± 0.44; A 1.46 ± 0.16; N 1.2 ± 0.24; S 0.459 ± 0.24; E 1.3 ± 0.2; P 0.526 ± 0.28; F 1.23 ± 0.49; V 1.1 ± 0.19; C 1.38 ± 0.068; K 1.22 ± 0.26; I 1.24 ± 0.12; R 1.21 ± 0.25; Y 0.553 ± 0.1
P286: C 0.46 ± 0.43; Y 1.65 ± 1; S 0.834 ± 0.37; F 1.54 ± 0.18; W 1.61 ± 0.054; G 1.05 ± 0.13; V 1.26 ± 0.079; I 0.986 ± 0.4; Q 1.07 ± 0.083; R 1.17 ± 0.44; D 0.448 ± 0.17; L 1.14 ± 0.32; E 1 ± 0.042; K 0.495 ± 0.61; A 0.97 ± 0.35; N 0.454 ± 0.077; T 1.07 ± 0.25; H 0.652 ± 0.12; M 1.36 ± 0.059
S278: N 0.723 ± 0.3; F 1 ± 0.2; M 1.35 ± 0.14; A 0.851 ± 0.21; G 1.34 ± 0.16; L 1.01 ± 0.28; C 0.735 ± 0.17; D 0.859 ± 0.21; Y 1.29 ± 0.17; P 1.12 ± 0.29; E 0.763 ± 0.2; R 0.819 ± 0.16; Q 1.16 ± 0.17; T 1.23 ± 0.46; I 1.04 ± 0.18; W 1.19 ± 0.12; K 1.28 ± 0.24; V 1.09 ± 0.31; H 1.22 ± 0.16
Q275: W 1.74 ± 0.026; R 1.03 ± 0.15; T 1.11 ± 0.33; K 1.06 ± 0.11; C 1.08 ± 0.075; V 1.01 ± 0.2; E 1.26 ± 0.19; P 1.19 ± 0.28; L 1.03 ± 0.14; F 1.11 ± 0.12; G 0.894 ± 0.33; Y 1.35 ± 0.22; H 1.01 ± 0.13; S 0.826 ± 0.52; M 1.04 ± 0.033; N 1.01 ± 0.25; D 1.33 ± 0.19; I 1.12 ± 0.15; A 0.853 ± 0.14
L283: M 1.34 ± 0.034; K 1.19 ± 0.23; A 1.02 ± 0.32; I 0.854 ± 0.18; S 1.01 ± 0.19; T 1.02 ± 0.36; D 1.01 ± 0.17; F 1.17 ± 0.21; W 1.14 ± 0.032; C 0.771 ± 0.21; E 0.987 ± 0.2; G 0.798 ± 0.17; H 1.15 ± 0.15; Y 1.19 ± 0.19; N 0.486 ± 0.18; R 1 ± 0.23; Q 0.784 ± 0.11; P 0.953 ± 0.21; V 1.12 ± 0.096
